Measurements as given in patent US20260207757A1 (IGF ONCOLOGY, published 2026).

Legend:
[1] = target: T1, type 1 IGF receptor (IGF-1R) (human, UniProt P08069 31-1367); assay: competition binding to IGF receptors against radioactive wild type IGF
T1 construct: whole, on cells; also called IGF-1 receptor; CD221
Procedure: 200 ul of each of these was mixed rapidly with 1.8 ml of refold buffer. Refold buffer was 1.4 M urea, 100 mM glycine, 0.5 M NaCl, 19% ethanol, 0.5 mM GSSG, 4 mM GSH, pH 9.5.

dihydrofolate reductase = assay: cell-based or functional assay

T1 sequence (P08069 31-1367): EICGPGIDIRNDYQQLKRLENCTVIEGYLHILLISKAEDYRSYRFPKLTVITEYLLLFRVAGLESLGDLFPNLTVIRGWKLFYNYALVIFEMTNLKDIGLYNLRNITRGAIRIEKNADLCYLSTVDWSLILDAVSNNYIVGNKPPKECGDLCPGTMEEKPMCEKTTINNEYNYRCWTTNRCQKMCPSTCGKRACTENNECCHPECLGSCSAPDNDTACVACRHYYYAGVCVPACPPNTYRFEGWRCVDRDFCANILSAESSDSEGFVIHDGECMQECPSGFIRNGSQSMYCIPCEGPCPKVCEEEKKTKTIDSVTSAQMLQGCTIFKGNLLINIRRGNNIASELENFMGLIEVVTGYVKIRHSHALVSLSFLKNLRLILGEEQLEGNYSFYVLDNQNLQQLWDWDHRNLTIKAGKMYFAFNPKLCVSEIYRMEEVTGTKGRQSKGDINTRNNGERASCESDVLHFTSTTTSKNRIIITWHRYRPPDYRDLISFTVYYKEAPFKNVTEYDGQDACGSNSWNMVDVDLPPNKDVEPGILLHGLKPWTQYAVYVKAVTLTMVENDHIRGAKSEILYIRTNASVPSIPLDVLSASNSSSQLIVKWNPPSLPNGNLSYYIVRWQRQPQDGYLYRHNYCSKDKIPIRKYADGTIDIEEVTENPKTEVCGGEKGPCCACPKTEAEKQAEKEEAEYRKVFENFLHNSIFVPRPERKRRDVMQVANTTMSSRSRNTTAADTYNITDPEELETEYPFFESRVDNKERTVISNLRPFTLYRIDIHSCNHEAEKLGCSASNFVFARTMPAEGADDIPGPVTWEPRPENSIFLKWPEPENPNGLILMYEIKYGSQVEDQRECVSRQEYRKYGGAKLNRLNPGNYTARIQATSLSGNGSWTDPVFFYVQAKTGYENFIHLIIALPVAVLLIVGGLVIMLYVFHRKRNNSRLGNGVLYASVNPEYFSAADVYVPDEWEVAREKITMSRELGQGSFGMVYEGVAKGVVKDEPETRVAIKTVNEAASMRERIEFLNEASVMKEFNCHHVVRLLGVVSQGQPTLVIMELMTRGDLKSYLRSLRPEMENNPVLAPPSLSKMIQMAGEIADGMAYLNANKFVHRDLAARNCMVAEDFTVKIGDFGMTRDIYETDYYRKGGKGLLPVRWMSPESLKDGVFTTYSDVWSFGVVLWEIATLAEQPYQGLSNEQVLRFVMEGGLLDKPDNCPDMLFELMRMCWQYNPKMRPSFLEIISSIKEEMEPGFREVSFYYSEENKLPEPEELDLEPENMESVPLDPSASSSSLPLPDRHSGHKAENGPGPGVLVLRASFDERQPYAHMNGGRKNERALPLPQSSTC

| Binder | Kd [1] [nM] | IC50 (inhibition of dihydrofolate reductase activity) (dihydrofolate reductase) [nEq/L] |
| --- | --- | --- |
| LR3IGF-MTX (ligand, methotrexate on amino groups (3 lysine side chains and the N-terminal amino group available), MTX:protein ratio of 2.8) MFPAMPLSSLFVNGPRTLCGALVDALQFVCGDRGFYFNKPTGYGSSSRRAPQTGIVDECCFRSCDLRRLEMYCAPLKPAKSEA | – | 99 |
| 785IGF (ligand, also called mutTrx-IGF132) MVKQIESKTAFQEALDAAGDKLVVVDFSATWCGHCKMIKPFFHSLSEKYSNVIFLEVDVDDSQDVASESEVKSMPTFQFFKKGQKVGEFSGANKEKLEATINELVGSKSGHHHHHHSAKGFVNQHLCGSHLVEALYLVCGDRGFYFNKPTGYGSSSRRAPQTGIVDECCFRSCDLRRLEMYCAPLKPAKSA | ~40 | – |

Continued by falling Kd [1], values first:

| Kd [1] [nM] | IC50 (inhibition of dihydrofolate reductase activity) (dihydrofolate reductase) [nEq/L] | Binder |
| --- | --- | --- |
| ~100 | – | 764IGF (ligand, also called His6-K5-IGF132) MVKGKHHHHHHNGKGKSKFVNQHLCGSHLVEALYLVCGDRGFYFNKPTGYGSSSRRAPQTGIVDECCFRSCDLRRLEMYCAPLKPAKSA |
| ~2 | – | 403IGF (ligand, T0001 describes it as His6-IGF; also called His6-IGF) MTSGHHHHHHSAGVNGFVNQHLCGSHLVEALYLVCGDRGFYFNKPTGYGSSSRRAPQTGIVDECCFRSCDLRRLEMYCAPLKPAKSA |
